Test results published in article PMC5847526 (2018).

Target: Lumi4-Tb-SNAP-FLT3 on HEK293 cells (UniProt P36888 27-993, Lumi4-Tb on the SNAP tag)
Experiment: FRET

Chain of Lumi4-Tb-SNAP-FLT3 on HEK293 cells (P36888 27-993): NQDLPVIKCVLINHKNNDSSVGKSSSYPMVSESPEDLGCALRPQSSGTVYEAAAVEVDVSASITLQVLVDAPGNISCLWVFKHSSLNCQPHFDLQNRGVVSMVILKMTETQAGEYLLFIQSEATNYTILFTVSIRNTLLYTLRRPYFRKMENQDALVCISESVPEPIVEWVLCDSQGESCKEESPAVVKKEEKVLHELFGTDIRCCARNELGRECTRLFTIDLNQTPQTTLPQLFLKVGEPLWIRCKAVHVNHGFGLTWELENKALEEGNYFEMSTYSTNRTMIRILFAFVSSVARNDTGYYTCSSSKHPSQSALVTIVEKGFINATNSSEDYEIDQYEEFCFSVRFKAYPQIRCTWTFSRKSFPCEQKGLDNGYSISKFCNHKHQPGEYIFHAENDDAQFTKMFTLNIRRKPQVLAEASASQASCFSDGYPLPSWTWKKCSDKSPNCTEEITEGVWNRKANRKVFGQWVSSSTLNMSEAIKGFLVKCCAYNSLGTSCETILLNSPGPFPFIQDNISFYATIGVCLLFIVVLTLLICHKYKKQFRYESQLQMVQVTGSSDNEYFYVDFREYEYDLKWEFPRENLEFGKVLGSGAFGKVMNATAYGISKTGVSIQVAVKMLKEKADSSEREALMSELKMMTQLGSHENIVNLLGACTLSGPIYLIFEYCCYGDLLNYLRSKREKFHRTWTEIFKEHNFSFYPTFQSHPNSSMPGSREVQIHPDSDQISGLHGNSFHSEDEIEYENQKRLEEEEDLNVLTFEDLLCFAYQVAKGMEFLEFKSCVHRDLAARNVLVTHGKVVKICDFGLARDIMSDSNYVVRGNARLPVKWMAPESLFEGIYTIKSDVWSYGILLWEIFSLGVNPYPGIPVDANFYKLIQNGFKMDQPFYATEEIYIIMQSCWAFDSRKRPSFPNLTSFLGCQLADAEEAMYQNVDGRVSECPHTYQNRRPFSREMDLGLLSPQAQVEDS

B1: human recombinant FL (rh-FLT3-L), labelled as Red-FL (ligand)
chain: TQDCSFQHSPISSDFAVKIRELSDYLLQDYPVTVASNLQDEELCGGLWRLVLAQRWMERLKTVAGSKMQGLLERVNTEIHFVTKCAFQPPPSCLRFVQTNISRLLQETSEQLVALKPWITRQNFSRCLELQCQPDSSTLPPPWSPRPLEATAPTAPQPPLLLLLLLPVGLLLLAAAWCLHWQRTRRRTPRPGEQVPPVPSPQDLLLVEH
modifications: red fluorophore (Red-FL), position not stated
**Q.** With B1 as the binder, how does the IC50 read?
**A.** Its IC50 is 0.57 nM.
